Measurements published in IntAct's records for PubMed 18606998.

B1: Transient receptor potential cation channel subfamily V member 5 (Oryctolagus cuniculus (Rabbit)), Q9XSM3 (parent)
chain: MGACPPKAKGPWAQLQKLLISWPVGEQDWEQYRDRVNMLQQERIRDSPLLQAAKENDLRLLKILLLNQSCDFQQRGAVGETALHVAALYDNLEAATLLMEAAPELAKEPALCEPFVGQTALHIAVMNQNLNLVRALLARGASVSARATGAAFRRSPHNLIYYGEHPLSFAACVGSEEIVRLLIEHGADIRAQDSLGNTVLHILILQPNKTFACQMYNLLLSYDEHSDHLQSLELVPNHQGLTPFKLAGVEGNTVMFQHLMQKRKHVQWTCGPLTSTLYDLTEIDSWGEELSFLELVVSSKKREARQILEQTPVKELVSFKWKKYGRPYFCVLASLYILYMICFTTCCIYRPLKLRDDNRTDPRDITILQQKLLQEAYVTHQDNIRLVGELVTVTGAVIILLLEIPDIFRVGASRYFGQTILGGPFHVIIITYASLVLLTMVMRLTNMNGEVVPLSFALVLGWCSVMYFARGFQMLGPFTIMIQKMIFGDLMRFCWLMAVVILGFASAFHITFQTEDPNNLGEFSDYPTALFSTFELFLTIIDGPANYSVDLPFMYCITYAAFAIIATLLMLNLFIAMMGDTHWRVAQERDELWRAQVVATTVMLERKMPRFLWPRSGICGYEYGLGDRWFLRVENHHDQNPLRVLRYVEAFKCSDKEDGQEQLSEKRPSTVESGMLSRASVAFQTPSLSRTTSQSSNSHRGWEILRRNTLGHLNLGLDLGEGDGEEVYHF

Variants of: B1
Details: with leg1_human LGALS1, P09382
Chain of leg1_human LGALS1, P09382 (P09382 whole entry): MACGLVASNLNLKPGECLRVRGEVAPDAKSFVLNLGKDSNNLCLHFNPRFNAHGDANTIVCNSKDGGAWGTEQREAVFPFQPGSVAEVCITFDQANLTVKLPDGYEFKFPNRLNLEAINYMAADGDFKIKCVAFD
With N358Q the “effect of a mutation on the interaction” value was “disrupting interaction”.
